Assay results taken from patent US20140241984A1 (UNITED ARAB EMIRATES UNIVERSITY, published 2014).

T1: fibrils of NAC (61-78) (human)
T1 construct: also called NAC (61-78) (F)
T1 peptide: EQVTNVGGAVVTGVTAVA

T2: IAPP monomers (UniProt P10997 34-70)
T2 peptide (looked up): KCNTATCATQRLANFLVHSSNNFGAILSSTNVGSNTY

T3: IAPP fibrils (UniProt P10997 34-70)
T3 construct: Amyloid fibrils of IAPP spotted in the dot blot; also called islet amyloid polypeptide
T3 peptide (looked up): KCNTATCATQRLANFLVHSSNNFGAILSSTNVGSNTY

T4: α-synuclein peptide 13 (85-98) (human)
T4 construct: also called Peptide No. 13
T4 peptide: AGSIAAATGFVKKD

T5: α-synuclein peptide 9 (57-70) (human)
T5 construct: also called Peptide No. 9
T5 peptide: EKTKEQVTNVGGAV

T6: α-synuclein peptide 8 (50-63) (human)
T6 construct: also called Peptide No. 8
T6 peptide: HGVATVAEKTKEQV

T7: α-synuclein peptide 7 (43-56) (human)
T7 construct: also called Peptide No. 7
T7 peptide: KTKEGVVHGVATVA

T8: α-synuclein peptide 17 (113-126) (human)
T8 construct: also called Peptide No. 17
T8 peptide: LEDMPVDPDNEAYE

T9: α-synuclein peptide 2 (8-21) (human)
T9 construct: also called Peptide No. 2
T9 peptide: LSKAKEGVVAAAEK

T10: α-synuclein peptide 14 (92-105) (human)
T10 construct: also called Peptide No. 14
T10 peptide: TGFVKKDQLGKNEE

T11: α-synuclein peptide 1 (1-14) (human)
T11 construct: also called Peptide No. 1
T11 peptide: MDVFMKGLSKAKEG

T12: α-synuclein peptide 16 (106-119) (human)
T12 construct: also called Peptide No. 16
T12 peptide: GAPQEGILEDMPVD

T13: α-synuclein peptide 18 (120-133) (human)
T13 construct: also called Peptide No. 18
T13 peptide: PDNEAYEMPSEEGY

T14: α-synuclein peptide 10 (64-77) (human)
T14 construct: also called Peptide No. 10
T14 peptide: TNVGGAVVTGVTAV

T15: α-synuclein peptide 11 (71-84) (human)
T15 construct: also called Peptide No. 11
T15 peptide: VTGVTAVAQKTVEG

T16: α-synuclein peptide 3 (15-28) (human)
T16 construct: also called Peptide No. 3
T16 peptide: VVAAAEKTKQGVAE

T17: α-synuclein peptide 15 (99-112) (human)
T17 construct: also called Peptide No. 15
T17 peptide: QLGKNEEGAPQEGI

T18: α-synuclein peptide 6 (36-49) (human)
T18 construct: also called Peptide No. 6
T18 peptide: GVLYVGSKTKEGVV

T19: α-synuclein peptide 12 (78-91) (human)
T19 construct: also called Peptide No. 12
T19 peptide: AQKTVEGAGSIAAA


What was measured:
fibrils of NAC (61-95) = molecular target: T20, fibrils of NAC (61-95) (human); experiment: dot blot
T20 construct: also called NAC region (61-95) (F)
Method: (§1) The membranes were blocked with 5% skimmed milk in PBST (PBS containing 0.05% Tween) and incubated for 1 h at room temperature. […] The membranes were washed and incubated with either 1/20000 diluted goat anti-mouse IgG-HRP (Jackson ImmunoResearch) or 1/10000 diluted goat anti-rabbit IgG-HRP (Jackson Immunoresearch) for 1 h at room temperature. The blots were then developed with Super signal West Pico chemiluminescent substrate.
(§2) C) To test the cross reactivity of our conformational monoclonal antibodies to different fragments of α-synuclein. […] The membranes were washed before incubating with either 1/20000 diluted goat anti-mouse IgG-HRP conjugate (Jackson Immunoresearch) or 1/300000 diluted chicken anti-goat IgG-HRP conjugate (Santa Cruz Biotechnology) for 1 h at room temperature. The blots were then developed with Super signal West Pico chemiluminescent substrate.

fibrils of NAC (61-78) = molecular target: T1, fibrils of NAC (61-78); experiment: dot blot
Method: as §1, §2

γ-synuclein fibrils = γ-synuclein fibrils (UniProt O76070 1-127); experiment: dot blot
Method: as §1, §2

IAPP monomers = molecular target: T2, IAPP monomers; experiment: dot blot
Method: as §1, §2

A-beta fibrils = molecular target: T21, A-beta fibrils (UniProt P05067 672-713, limits assumed); experiment: dot blot
T21 construct: Amyloid fibrils of A-beta spotted in the dot blot; also called β-amyloid
Method: as §1, §2

β-synuclein fibrils = β-synuclein fibrils (UniProt Q16143 1-134); experiment: dot blot
Method: as §1, §2

γ-synuclein monomers = γ-synuclein monomers (UniProt O76070 1-127); experiment: dot blot
Method: as §1, §2

β-synuclein monomers = β-synuclein monomers (UniProt Q16143 1-134); experiment: dot blot
Method: as §1, §2

A-beta monomers = molecular target: T22, A-beta monomers (UniProt P05067 672-713, limits assumed); experiment: dot blot
T22 construct: also called β-amyloid monomers
Method: as §1, §2

IAPP fibrils = molecular target: T3, IAPP fibrils; experiment: dot blot
Method: as §1, §2

[1] = molecular target: T4, α-synuclein peptide 13 (85-98); experiment: pepscan ELISA
Method: (§3) To confirm the pepscan results using dot blot the mAbs were also tested by Pepscan using ELISA. […] The plate was washed with PBST and 50 μl of substrate (SuperSignal ELISA Femto Maximum Sensitivity Substrate, Thermo Scientific) was added and immediately read the plate using Victor X3 microtiter plate reader. After the ELISA signals were measured, the plate was also exposed onto X-ray film to develop the spots.

[2] = molecular target: T5, α-synuclein peptide 9 (57-70); experiment: pepscan ELISA
Method: as §3

[3] = molecular target: T6, α-synuclein peptide 8 (50-63); experiment: pepscan ELISA
Method: as §3

[4] = molecular target: T7, α-synuclein peptide 7 (43-56); experiment: pepscan ELISA
Method: as §3

[5] = molecular target: T8, α-synuclein peptide 17 (113-126); experiment: pepscan ELISA
Method: as §3

[6] = molecular target: T9, α-synuclein peptide 2 (8-21); experiment: pepscan ELISA
Method: as §3

[7] = molecular target: T10, α-synuclein peptide 14 (92-105); experiment: pepscan ELISA
Method: as §3

[8] = molecular target: T11, α-synuclein peptide 1 (1-14); experiment: pepscan ELISA
Method: as §3

[9] = molecular target: T12, α-synuclein peptide 16 (106-119); experiment: pepscan ELISA
Method: as §3

[10] = molecular target: T13, α-synuclein peptide 18 (120-133); experiment: pepscan ELISA
Method: as §3

[11] = molecular target: T14, α-synuclein peptide 10 (64-77); experiment: pepscan ELISA
Method: as §3

[12] = molecular target: T15, α-synuclein peptide 11 (71-84); experiment: pepscan ELISA
Method: as §3

[13] = molecular target: T16, α-synuclein peptide 3 (15-28); experiment: pepscan ELISA
Method: as §3

[14] = molecular target: T17, α-synuclein peptide 15 (99-112); experiment: pepscan ELISA
Method: as §3

[15] = molecular target: T18, α-synuclein peptide 6 (36-49); experiment: pepscan ELISA
Method: as §3

[16] = molecular target: T19, α-synuclein peptide 12 (78-91); experiment: pepscan ELISA
Method: as §3

β-synuclein fibrils, sequence (Q16143 whole entry): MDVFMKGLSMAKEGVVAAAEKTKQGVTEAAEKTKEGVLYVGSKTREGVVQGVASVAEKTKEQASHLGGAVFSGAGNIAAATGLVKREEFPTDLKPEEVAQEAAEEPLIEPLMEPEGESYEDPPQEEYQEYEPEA
β-synuclein monomers, sequence (Q16143 whole entry): as above
γ-synuclein monomers, sequence (O76070 whole entry): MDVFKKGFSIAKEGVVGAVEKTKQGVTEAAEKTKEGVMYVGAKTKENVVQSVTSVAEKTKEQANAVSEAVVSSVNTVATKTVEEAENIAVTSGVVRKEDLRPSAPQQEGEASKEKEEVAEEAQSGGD
γ-synuclein fibrils, sequence (O76070 whole entry): as above

binding result (fibrils of NAC (61-95)) | binding result (fibrils of NAC (61-78)) | binding result (γ-synuclein fibrils) | binding result (β-synuclein fibrils) | binding result (γ-synuclein monomers) | binding result (β-synuclein monomers) | Binder | binding result (IAPP monomers) | binding result (A-beta fibrils) | binding result (A-beta monomers) | binding result (IAPP fibrils) | binding result [1] | binding result [2] | binding result [3] | binding result [4] | binding result [5] | binding result [6] | binding result [7] | binding result [8] | binding result [9] | binding result [10] | further results
no binding (tested: 50 ng spotted) | no binding (tested: 50 ng spotted) | no binding (tested: 50 ng spotted) | no binding (tested: 50 ng spotted) | no binding (tested: 50 ng spotted) | no binding (tested: 50 ng spotted) | Syn-O1 (antibody, IgG2b, V domains shown, also called mAb Syn-O1) VH: EVQLVESGGGLVQPKGSLKLSCAASGFTFNTYAMHWVRQAPGKGLEWVARIRSKSSNYATYYADSVKDRFTISRDDSQSMLYLQMNNLKTEDTAMYYCVRPLKWYFDVWGTGTTVTVSS VL: QIVLTQSPAILSASPGEKVTMTCSASSTVNYMHWYQQKSGTSPKIWIYDTSKLASGVPARFSGSGSWTSYSLTISSMEAEDAATYYCQQWNSNPPTFGAGTKLELK | no binding (tested: 50 ng/ml antibody, 50 ng spotted) | no binding (tested: 50 ng/ml antibody, 50 ng spotted) | no binding (tested: 50 ng/ml antibody, 50 ng spotted) | no binding (tested: 50 ng/ml antibody, 50 ng spotted) | no binding (tested: 100 ng/ml antibody, 500 ng/well peptide) | no binding (tested: 100 ng/ml antibody, 500 ng/well peptide) | no binding (tested: 100 ng/ml antibody, 500 ng/well peptide) | no binding (tested: 100 ng/ml antibody, 500 ng/well peptide) | no binding (tested: 100 ng/ml antibody, 500 ng/well peptide) | no binding (tested: 100 ng/ml antibody, 500 ng/well peptide) | no binding (tested: 100 ng/ml antibody, 500 ng/well peptide) | no binding (tested: 100 ng/ml antibody, 500 ng/well peptide) | no binding (tested: 100 ng/ml antibody, 500 ng/well peptide) | no binding (tested: 100 ng/ml antibody, 500 ng/well peptide) | binding result [11]: no binding (tested: 100 ng/ml antibody, 500 ng/well peptide); binding result [12]: no binding (tested: 100 ng/ml antibody, 500 ng/well peptide); binding result [13]: no binding (tested: 100 ng/ml antibody, 500 ng/well peptide); binding result [14]: no binding (tested: 100 ng/ml antibody, 500 ng/well peptide); binding result [15]: no binding (tested: 100 ng/ml antibody, 500 ng/well peptide); binding result [16]: no binding (tested: 100 ng/ml antibody, 500 ng/well peptide)
no binding (tested: 50 ng spotted) | no binding (tested: 50 ng spotted) | no binding (tested: 50 ng spotted) | no binding (tested: 50 ng spotted) | no binding (tested: 50 ng spotted) | no binding (tested: 50 ng spotted) | Syn-F1 (antibody, V domains shown, also called mAb Syn-F1) VH: DVQLVESGGDLVQPGGSRKLSCAASGFTFSSFGMHWVRQAPEKGLEWVAYINSGSSTIYYADTVKGRFTISRDNPKNTLFLQMTSLRSEDTAMYYCARGNNPGTGYYYSMDYWGQGTSVTVSS VL: not shown | no binding (tested: 50 ng/ml antibody, 50 ng spotted) | no binding (tested: 50 ng/ml antibody, 50 ng spotted) | no binding (tested: 50 ng/ml antibody, 50 ng spotted) | no binding (tested: 50 ng/ml antibody, 50 ng spotted) | no binding (tested: 100 ng/ml antibody, 500 ng/well peptide) | no binding (tested: 100 ng/ml antibody, 500 ng/well peptide) | no binding (tested: 100 ng/ml antibody, 500 ng/well peptide) | no binding (tested: 100 ng/ml antibody, 500 ng/well peptide) | no binding (tested: 100 ng/ml antibody, 500 ng/well peptide) | no binding (tested: 100 ng/ml antibody, 500 ng/well peptide) | no binding (tested: 100 ng/ml antibody, 500 ng/well peptide) | no binding (tested: 100 ng/ml antibody, 500 ng/well peptide) | no binding (tested: 100 ng/ml antibody, 500 ng/well peptide) | no binding (tested: 100 ng/ml antibody, 500 ng/well peptide) | binding result [11]: no binding (tested: 100 ng/ml antibody, 500 ng/well peptide); binding result [12]: no binding (tested: 100 ng/ml antibody, 500 ng/well peptide); binding result [13]: no binding (tested: 100 ng/ml antibody, 500 ng/well peptide); binding result [14]: no binding (tested: 100 ng/ml antibody, 500 ng/well peptide); binding result [15]: no binding (tested: 100 ng/ml antibody, 500 ng/well peptide); binding result [16]: no binding (tested: 100 ng/ml antibody, 500 ng/well peptide)
no binding (tested: 50 ng spotted) | no binding (tested: 50 ng spotted) | no binding (tested: 50 ng spotted) | no binding (tested: 50 ng spotted) | no binding (tested: 50 ng spotted) | no binding (tested: 50 ng spotted) | Syn-F2 (antibody, IgG2a, V domains shown, also called mAb Syn-F2) VH: DVQLVESGGGLVQPGGSRKLSCAASGFTFSSFGMHWVRQAPEKGLEWVAYISSGSSTIYYADTVKGRFTISRDNPKNTLFLQMTSLRSEDTAMYYCARGNNPGTGYYYAMDYWGQGTSVTVSS VL: not shown | no binding (tested: 50 ng/ml antibody, 50 ng spotted) | no binding (tested: 50 ng/ml antibody, 50 ng spotted) | no binding (tested: 50 ng/ml antibody, 50 ng spotted) | no binding (tested: 50 ng/ml antibody, 50 ng spotted) | no binding (tested: 100 ng/ml antibody, 500 ng/well peptide) | no binding (tested: 100 ng/ml antibody, 500 ng/well peptide) | no binding (tested: 100 ng/ml antibody, 500 ng/well peptide) | no binding (tested: 100 ng/ml antibody, 500 ng/well peptide) | no binding (tested: 100 ng/ml antibody, 500 ng/well peptide) | no binding (tested: 100 ng/ml antibody, 500 ng/well peptide) | no binding (tested: 100 ng/ml antibody, 500 ng/well peptide) | no binding (tested: 100 ng/ml antibody, 500 ng/well peptide) | no binding (tested: 100 ng/ml antibody, 500 ng/well peptide) | no binding (tested: 100 ng/ml antibody, 500 ng/well peptide) | binding result [11]: no binding (tested: 100 ng/ml antibody, 500 ng/well peptide); binding result [12]: no binding (tested: 100 ng/ml antibody, 500 ng/well peptide); binding result [13]: no binding (tested: 100 ng/ml antibody, 500 ng/well peptide); binding result [14]: no binding (tested: 100 ng/ml antibody, 500 ng/well peptide); binding result [15]: no binding (tested: 100 ng/ml antibody, 500 ng/well peptide); binding result [16]: no binding (tested: 100 ng/ml antibody, 500 ng/well peptide)
